Patent publication US20240239894A1 (AstraZeneca / MedImmune, published 2024)
Residue numbers refer to the chain shown, from its start.

How the values were obtained:
[1] = biological target: T1, recombinant mouse B7-H4 (tag format not stated) (mouse, UniProt Q7TSP5 25-257, limits assumed); experiment: SPR
T1 construct: FlagHis10 or FcHis6 in the commercial antibody ELISA; also called murine B7-H4 antigen
T1 sequence (looked up): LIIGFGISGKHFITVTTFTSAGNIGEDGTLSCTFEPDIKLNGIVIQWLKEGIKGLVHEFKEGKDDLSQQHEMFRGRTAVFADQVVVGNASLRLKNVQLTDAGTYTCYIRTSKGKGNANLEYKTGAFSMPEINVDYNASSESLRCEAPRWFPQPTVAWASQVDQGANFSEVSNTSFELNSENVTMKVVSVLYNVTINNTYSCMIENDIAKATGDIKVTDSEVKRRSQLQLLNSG

[2] = biological target: T1, recombinant mouse B7-H4 (tag format not …); experiment: SPR; remark: listed apart in the source
[3] = biological target: T2, recombinant human B7-H4 (tag format not stated) (human, UniProt Q7Z7D3 25-259); experiment: SPR, immobilized B7-H4
T2 construct: also called huB7-H4; human B7-H4 antigen
T2 sequence: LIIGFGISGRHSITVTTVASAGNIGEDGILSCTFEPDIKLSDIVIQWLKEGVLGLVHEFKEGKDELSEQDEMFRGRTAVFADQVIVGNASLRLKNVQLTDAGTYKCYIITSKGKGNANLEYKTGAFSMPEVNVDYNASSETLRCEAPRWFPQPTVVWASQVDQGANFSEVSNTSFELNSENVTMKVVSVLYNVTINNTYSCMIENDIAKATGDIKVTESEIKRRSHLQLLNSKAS

[4] = biological target: T3, recombinant cynomolgus monkey B7-H4 (tag format not stated) (cynomolgus monkey, UniProt A0A2K5U6P5 25-259); experiment: SPR, immobilized B7-H4
T3 construct: also called cyno B7-H4
T3 sequence: T2 sequence with L53I

[5] = biological target: T4, Human B7-H4 ECD-Flag-His10 (monomeric) (human, UniProt Q7Z7D3 25-259); experiment: KinExA 3200, Fab, N-curve analysis
T4 construct: Minimally biotinylated for KinExA; also called hB7H4-ECD-Flag-His10; B7-H4-FLAG
T4 sequence: T2 sequence

[6] = biological target: T4, Human B7-H4 ECD-Flag-His10 (monomeric); experiment: KinExA 3200, Fab at 5, 10 or 45 nM, 25 C, N-curve analysis
[7] = biological target: T2, recombinant human B7-H4 (tag format not …); experiment: ELISA, Maia format mAb (GLY)
[8] = biological target: T1, recombinant mouse B7-H4 (tag format not …); experiment: ELISA, Maia format mAb (GLY)
[9] = biological target: T2, recombinant human B7-H4 (tag format not …); experiment: ELISA, Maia format mAb (GLQ)
[10] = biological target: T1, recombinant mouse B7-H4 (tag format not …); experiment: ELISA, Maia format mAb (GLQ)
human B7-H4 on cells [11] = biological target: T5, human B7-H4 on cells (human, UniProt Q7Z7D3 25-282); experiment: cell-based or functional assay
T5 sequence: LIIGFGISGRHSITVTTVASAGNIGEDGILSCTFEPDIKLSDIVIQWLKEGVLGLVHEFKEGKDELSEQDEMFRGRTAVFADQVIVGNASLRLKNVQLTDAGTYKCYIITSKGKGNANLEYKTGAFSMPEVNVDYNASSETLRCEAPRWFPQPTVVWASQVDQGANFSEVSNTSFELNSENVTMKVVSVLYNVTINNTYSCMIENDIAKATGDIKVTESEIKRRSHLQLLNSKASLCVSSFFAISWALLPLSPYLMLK

[12] = biological target: T2, recombinant human B7-H4 (tag format not …); experiment: SPR, antibody capture
human FcRn = human FcRn (human, UniProt P55899 24-297; P61769 21-119); experiment: SPR, steady state; steady state; human FcRn
huFcγRI = huFcγRI (human, UniProt P12314 16-288); experiment: SPR, equilibrium KD; equilibrium KD; huFcγRI
[13] = biological target: T2, recombinant human B7-H4 (tag format not …); experiment: DELFIA-ELISA on immobilized recombinant human B7-H4
human B7-H4 on cells [14] = biological target: T5, human B7-H4 on cells; experiment: flow cytometry on HT29-huB7-H4 Clone 4 cells, MFI (geometric mean)
human B7-H4 on cells [15] = biological target: T5, human B7-H4 on cells; experiment: flow cytometry on HT29-huB7-H4 Clone 26 cells, MFI (geometric mean)
human B7-H4 on cells [16] = biological target: T5, human B7-H4 on cells; experiment: flow cytometry on MX-1 cells (endogenous human B7-H4), MFI (geometric mean)
human B7-H4 on cells [17] = biological target: T5, human B7-H4 on cells; experiment: flow cytometry on MDA-MB-468 cells (endogenous human B7-H4), MFI (geometric mean)
murine B7-H4 on cells = biological target: T6, murine B7-H4 on cells (mouse, UniProt Q7TSP5 25-257); experiment: flow cytometry on HEK293 JI TREX cells stably expressing murine B7-H4, MFI (geometric mean)
T6 construct: whole, on cells; also called muB7-H4
T6 sequence (looked up): T1 sequence (looked up)

[18] = biological target: T7, cynomolgus monkey B7-H4 on cells (cynomolgus monkey, UniProt A0A2K5U6P5 25-282); experiment: flow cytometry on HEK293 JI TREX cells stably expressing cynomolgus monkey B7-H4, MFI (geometric mean)
T7 construct: whole, on cells; On HEK 293 cells; also called cynoB7-H4
T7 sequence: T5 sequence with L53I, F242L, S252A

Chain of huFcγRI (P12314 16-288 limits assumed): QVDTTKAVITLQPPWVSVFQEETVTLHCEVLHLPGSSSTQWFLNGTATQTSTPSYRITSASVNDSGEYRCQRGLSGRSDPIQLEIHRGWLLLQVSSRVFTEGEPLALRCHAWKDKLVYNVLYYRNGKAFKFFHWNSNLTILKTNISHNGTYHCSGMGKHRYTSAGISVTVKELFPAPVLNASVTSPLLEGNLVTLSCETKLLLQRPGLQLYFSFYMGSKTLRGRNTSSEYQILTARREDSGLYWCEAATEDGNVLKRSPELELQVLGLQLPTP
Chain of human FcRn (P55899 24-297 limits assumed, chain 1 of 2): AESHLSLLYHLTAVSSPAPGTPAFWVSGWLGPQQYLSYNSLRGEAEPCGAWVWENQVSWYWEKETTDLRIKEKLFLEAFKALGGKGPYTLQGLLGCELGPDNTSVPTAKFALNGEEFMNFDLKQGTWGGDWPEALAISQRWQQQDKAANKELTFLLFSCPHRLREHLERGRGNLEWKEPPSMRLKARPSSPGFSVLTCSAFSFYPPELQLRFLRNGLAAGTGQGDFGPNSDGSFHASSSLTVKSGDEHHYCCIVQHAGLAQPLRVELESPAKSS
Chain of human FcRn (P61769 21-119 limits assumed, chain 2 of 2): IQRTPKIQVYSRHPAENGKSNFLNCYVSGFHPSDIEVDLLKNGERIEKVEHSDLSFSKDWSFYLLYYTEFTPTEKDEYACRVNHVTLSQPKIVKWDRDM

B1: E02_GL Fab (Fab, V domains shown)
VH: QVQLQQWGAGLLKPSETLSLACTVYGGSFSGYYWNWIRQPPGKGLEWIGEINHSGSTSYNPSLKSRVTISVDTSKNQFSLKLSSVTAADTAVYYCARVLYNWNVDSWGQGTLVTVSS
VL: DIQMTQSPSSLSASVGDRVTITCRASQDIRNDVGWYQQKPGKAPKRLIYAASRLQSGVPSRFSGSGSGTEFTLTISSLQPEDFATYYCLQHNSYPRTFGQGTKVEIK
notes: Fab of E02-GL; also called EO2_GL Fab; E02-INT Fab
fold lower affinity than for human B7-H4 antigen [1]: ~100 fold | Kd [2]: 405 nM | Kd [3]: 3.7 nM | Kd [4]: 3.94 nM | Kd [5]: 1.21 nM | Kd [6]: 1.2 nM

B2: E02-GLY-maia (antibody, human IgG1, kappa, V domains shown)
VH: B1 VH with N52Y
VL: DIQMTQSPSSLSASVGDRVTITCRASQDIRNDVGWYQQKPGKAPKRLIYAASRLQSGVPSRFSGSGSGTEFTLTISSLQPEDFATYYCLQHNSYPRTFGQGTKVEIKR
notes: Germlined with a Y substitution, Maia format
binding result [7]: binds | binding result [8]: binds

B3: E02-GLQ-maia (antibody, human IgG1, kappa, V domains shown)
VH: B1 VH with N52Q
VL: B2 VL
notes: Germlined with a Q substitution, Maia format
binding result [9]: binds | binding result [10]: binds

B4: E02-GL-SG3932 (antibody, human IgG1, kappa)
heavy: not shown
light: DIQMTQSPSSLSASVGDRVTITCRASQDIRNDVGWYQQKPGKAPKRLIYAASRLQSGVPSRFSGSGSGTEFTLTISSLQPEDFATYYCLQHNSYPRTFGQGTKVEIKRTVAAPSVFIFPPSDEQLKSGTASVVCLLNNFYPREAKVQWKVDNALQSGNSQESVTEQDSKDSTYSLSSTLTLSKADYEKHKVYACEVTHQGLSSPVTKSFNRGEC
modifications: SG3932 on native cysteines (DAR about 8 for the whole antibody); SG3932 (mal-PEG8-val-ala linker with TOP1i warhead) on native cysteines through a thiosuccinimide linkage, about 8 drugs per antibody
notes: also called E02-INT-SG3932; B7-H4 targeting TOP1i-ADC; copies: 2 + 2
IC50, cytotoxicity (CellTiter-Glo) on HT29-huB7-H4 Clone 26 (human B7-H4 on cells [11]): 0.036 g/mL (as printed; probably µg/mL) | IC50, cytotoxicity (CellTiter-Glo) on MX-1 (human B7-H4 on cells [11]): 0.029 µg/mL | IC50, cytotoxicity (CellTiter-Glo, 6 days) on human B7-H4 transfected Ad293 cells (human B7-H4 on cells [11]): 0.0533 µg/mL | Kd [12]: 29.3 nM | koff [12]: 0.0028 s⁻¹ | kon [12]: 95500 M⁻¹ s⁻¹ | Kd (human FcRn): 4360 nM | Kd (huFcγRI): 4.35 nM | EC50 [13]: 1.71 nM | EC50 (read off the curve) (human B7-H4 on cells [14]): ~0.07 µg/mL | EC50 (read off the curve) (human B7-H4 on cells [15]): ~0.1 µg/mL | EC50 (read off the curve) (human B7-H4 on cells [16]): ~0.1 µg/mL | EC50 (read off the curve) (human B7-H4 on cells [17]): ~0.08 µg/mL

B5: E02-INT (antibody intermediate of E02-GL-SG3932) (antibody, human IgG1, kappa)
heavy: not shown
light: B4 light
notes: also called E02-GL antibody; antibody intermediate E02-INT
Kd [12]: 31.1 nM | koff [12]: 0.00292 s⁻¹ | kon [12]: 93800 M⁻¹ s⁻¹ | EC50 [13]: 1.98 nM | EC50 (read off the curve) (human B7-H4 on cells [14]): ~0.05 µg/mL | EC50 (read off the curve) (human B7-H4 on cells [15]): ~0.07 µg/mL | EC50 (read off the curve) (human B7-H4 on cells [16]): ~0.1 µg/mL | EC50 (read off the curve) (human B7-H4 on cells [17]): ~0.08 µg/mL | EC50 (read off the curve) (murine B7-H4 on cells): ~0.2 µg/mL | EC50 (read off the curve) [18]: ~0.4 µg/mL
